Laboratory results published in US20140256912A1, “Stabilized Variant MAML Peptides and Uses Thereof” (PRESIDENT AND FELLOWS OF HARVARD COLLEGE, priority 2011, published 2014).
Bridge positions count the residues as written; N and C are the ends. Square brackets hold non-standard residues; d marks the D form. Ends that are not written are not given here. dPhe(F5) = N[C@H](Cc1c(F)c(F)c(F)c(F)c1F)C(=O)O; 1Nal = N[C@@H](Cc1cccc2ccccc12)C(=O)O; 2Nal = N[C@@H](Cc1ccc2ccccc2c1)C(=O)O; S5 = C=CCCC[C@](C)(N)C(=O)O; I_N = not defined here; βAla = NCCC(=O)O

What was measured:
[1] = target: equimolar RAMANK1-CSL complex (human) (UniProt P46531); assay: SPR, preformed RAMANK1-CSL complex
[2] = target: equimolar RAMANK1-CSL complex (human) (UniProt P46531); assay: SPR (Biacore 3000), peptide immobilised on a streptavidin chip, equimolar RAMANK1 and CSL injected; bio-nt-sdnMAML1, residues 16-45
[3] = target: GST-RAMANK1-CSL complex (human) (UniProt P46531); assay: ALPHAscreen, 40 nM of all partners
[4] = target: GST-RAMANK1-CSL complex (human) (UniProt P46531); assay: ALPHAscreen titration matrix, binding components in the range of 10-100 nM
[5] = target: equimolar RAMANK1-CSL complex (human) (UniProt P46531); assay: SPR (Biacore 3000), peptide immobilised on a streptavidin chip, equimolar RAMANK1 and CSL injected; bio-sdnMAML1, residues 16-70
[6] = target: GST-RAMANK1-CSL complex (human) (UniProt P46531); assay: ALPHAscreen competition against Bio-sdnMAML1 binding to GST-RAMANK1-CSL
[7] = target: GST-RAMANK1-CSL complex (human) (UniProt P46531); assay: ALPHAscreen NTC competition: peptide titrated against Bio-sdnMAML1 binding to GST-RAMANK1-CSL; IC50 with 95% CI
[8] = target: NOTCH1-CSL transactivation complex in U2OS cells transfected with the truncated, constitutively activated ΔEGFΔLNR-NOTCH1 allele, P46531; assay: cell-based or functional assay
[9] = target: equimolar RAMANK1-CSL complex (human) (UniProt P46531); assay: SPR (Biacore 3000), peptide immobilised on a streptavidin chip, equimolar RAMANK1 and CSL injected; bio-SAHM1, stapled peptide

Molecule: bio-nt-sdnMAML1 (residues 16-45), N-terminal helix of dnMAML1 (from UniProt Q92585 16-45) (peptide)
- fold decrease in affinity against s-dnMAML1 [1]: 10 fold
- Kd [2]: 0.4 µM

Molecule: synthetic, biotinylated dnMAML1 (Bio-sdnMAML1, residues 16-70) (from UniProt Q92585 16-70) (peptide)
- signal-to-noise ratio [3]: 30 fold
- ALPHAscreen luminescent signal (maximum) [4]: 45000 c.p.s.
- Kd [5]: 0.04 µM

Molecule: unlabeled Ac-sdnMAML1 peptide (from UniProt Q92585 16-70)
- IC50 (read off the curve) [6]: 0.1 µM

Molecule: Ac-W[βAla]ERWRRRL[S5]WFR[S5]HHST (staple 10-14) [SAHM1-39]
- IC50 [7]: 0.9 µM

Molecule: Ac-W[βAla]ERWRRRL[S5]YCR[S5]HHST (staple 10-14) [SAHM1-47]
- IC50 [7]: 0.46 µM

Molecule: Ac-W[βAla]ERWRRRL[S5]WVR[S5]HHST (staple 10-14) [SAHM1-38]
- IC50 [7]: 0.54 µM

Molecule: Ac-W[βAla]ERWRRRL[S5]LFR[S5]HHST[dPhe(F5)]EARY (staple 10-14) [SAHM1-35]
- IC50 [7]: 1.2 µM

Molecule: Ac-W[βAla]ERWRRRL[S5]LCR[S5]HHSTCEAR[1Nal] (staple 10-14; cysteine pairing not given here) [SAHM1-51]
- IC50 [7]: 0.36 µM

Molecule: Ac-W[βAla]ERWRRRI[S5]YCR[S5]HHST (staple 10-14) [SAHM1-55]
- IC50 [7]: 0.25 µM

Molecule: Ac-W[βAla]ERWRRRL[S5]YVR[S5]HHSTCEARYEAVSPERL (staple 10-14) [SAHM1-80]
- IC50 [7]: 0.36 µM

Molecule: Ac-W[βAla]ERWRRRL[S5]YVR[S5]HHST (staple 10-14) [SAHM1-48]
- IC50 [7]: 0.67 µM

Molecule: Ac-W[βAla]ERWRRRI[S5]LFR[S5]HHSTCEARY (staple 10-14) [SAHM1-25 (E21-Y41 scaffold, L23W/C30F double mutant), Q92585 21-41]
- EC50, NOTCH1-driven CSL-luciferase dual reporter in U2OS cells [8]: 10 µM
- fold lower IC50 than SAHM1, NOTCH1 reporter gene assay [8]: 2 fold

Molecule: Ac-W[βAla]ERWRRRL[S5]YFR[S5]HHSTCEAR[1Nal] (staple 10-14) [SAHM1-61]
- IC50 [7]: 0.44 µM

Molecule: Ac-W[βAla]ERWRRRI[S5]YFR[S5]HHST (staple 10-14) [SAHM1-56 (E21-T36 scaffold with L23W, L29Y and C30F)]
- IC50 [7]: 0.22 µM

Molecule: Ac-W[βAla]ERWRRRL[S5]WCR[S5]HHST[dPhe(F5)]EARY (staple 10-14) [SAHM1-43]
- IC50 [7]: 0.78 µM

Molecule: Ac-W[βAla]ERWRRRI[S5]YFR[S5]HHST[dPhe(F5)]EAR[1Nal] (staple 10-14) [SAHM1-62 (E21-Y41 scaffold with L23W, L29Y, C30F, C37 D-pentafluoro-Phe and Y41 1-naphthylalanine)]
- IC50 [7]: 0.32 µM

B1: Bio-SAHM1 (biotinylated stapled MAML1 E21-T36 peptide) (peptide, UniProt Q92585 21-36, looked up)
peptide: ERLRRRI[S5]LCR[S5]HHST
modifications: staple 8-12; not fully specified (N-terminus); also: biotin label, linker not described
- Kd [9]: 0.1 µM

Molecule: Ac-W[βAla]ERWRRRI[S5]YFR[S5]HHST[dPhe(F5)]EAR[1Nal] (staple 10-14)
- EC50, NOTCH1-driven CSL-luciferase dual reporter in U2OS cells [8]: 5 µM
- fold lower IC50 than SAHM1, NOTCH1 reporter gene assay [8]: 4 fold

Molecule: Ac-W[βAla]ERWRRRI[S5]WCR[S5]HHSTCEARY (staple 10-14; cysteine pairing not given here) [SAHM1-27 (E21-Y41 scaffold, L23W/L29W double mutant)]
- IC50 [7]: 0.2 µM

Molecule: Ac-W[βAla]ERWRRRL[S5]WCR[S5]HHSTCEARYEAVSPERL (staple 10-14; cysteine pairing not given here) [SAHM1-81]
- IC50 [7]: 0.37 µM

Molecule: Ac-W[βAla]ERWRRRL[S5]LCR[S5]HHSTCEAR[2Nal] (staple 10-14; cysteine pairing not given here) [SAHM1-50]
- IC50 [7]: 0.41 µM

Molecule: Ac-W[βAla]ERWRRRL[S5]YCR[S5]HHSTCEARYEAVSPERL (staple 10-14; cysteine pairing not given here) [SAHM1-76]
- IC50 [7]: 0.27 µM

Molecule: Ac-W[βAla]ERWRRRI[S5]FCR[S5]HHSTCEARY (staple 10-14; cysteine pairing not given here) [SAHM1-26]
- IC50 [7]: 0.85 µM

Molecule: Ac-W[βAla]ERWRRRL[S5]YCR[S5]HHSTCEARY (staple 10-14; cysteine pairing not given here) [SAHM1-59]
- IC50 [7]: 0.34 µM

Molecule: Ac-W[βAla]ERLRRRI[S5]LCR[S5]HHSTCEARY (staple 10-14; cysteine pairing not given here) [SAHM1-24 (stapled peptide of the E21-Y41 scaffold)]
- IC50 [7]: 1.12 µM

Molecule: Ac-W[βAla]ERLRRRI[S5]LCR[S5]HHSTFEARY (staple 10-14) [SAHM1-28]
- IC50 [7]: 0.56 µM

Molecule: Ac-W[βAla]ERWRRRL[S5]YFR[S5]HHST[dPhe(F5)]EARY (staple 10-14) [SAHM1-60]
- IC50 [7]: 0.45 µM

Molecule: Ac-W[βAla]ERWRRRI[S5]FCR[S5]HHST (staple 10-14) [SAHM1-22]
- IC50 [7]: 0.69 µM

Molecule: Ac-W[βAla]RELRREI[S5]LCR[S5]HHST (staple 10-14) [SAHM1-D1]
- IC50 [7]: 3.7 µM

Molecule: Ac-W[βAla]ERLRRRI[S5]LCR[S5]HHST (staple 10-14) [AcW-SAHM1 (stapled MAML1 E21-T36 peptide with N-acetyl tryptophan cap)]
- IC50 [7]: 1.7 µM

Molecule: Ac-W[βAla]ELER[S5]HTF[S5]LHQR (staple 7-11) [SAHM5]
- IC50 [7]: 6.5 µM

Molecule: Ac-W[βAla]ERWRRRI[S5]LFR[S5]HHSTCEARY (staple 10-14) [SAHM1-25 (E21-Y41 scaffold, L23W/C30F double mutant)]
- IC50 [7]: 0.29 µM

Molecule: Ac-W[βAla]ERWRRRL[S5]LCR[S5]HHST[I_N]EARY (staple 10-14; reading uncertain) [SAHM1-52]
- IC50 [7]: 0.61 µM
